Data reported in paper PMC13316113, “RNA-induced PRC2 inhibition depends on the sequence of bound RNA”.

Columns and labels:
[1] = molecular target: T1, six-subunit PRC2 (EZH2-EED-SUZ12-RBAP48-AEBP2-JARID2) (UniProt Q15910-2;O75530;Q15022;Q09028;Q6ZN18-2;Q92833 …); assay: EMSA; 100 mM KCl; EMSA: 50 mM Tris-HCl pH 7.5 (25 C), 100 mM KCl (or LiCl), 2.5 mM MgCl2, 0.1 mM ZnCl2, 2 mM 2-mercaptoethanol, 0.05 mg/ml BSA, 0.05 mg/ml yeast tRNA, 5% glycerol, 30 C 30 min; conditions: protein: recombinant, tags: His (EZH2), Strep-GFP (AEBP2, JARID2), TEV treated, AEBP2 retains 7 extra N-terminal aa, copies: 1;1;1;1;1;1, label: 32P 5' (EMSA)
[2] = molecular target: six-subunit PRC2 AEBP2del261-389 (UniProt Q15910-2;O75530;Q15022;Q09028;Q6ZN18-2;Q92833 …, internal_change); assay: EMSA; P = 0.05 vs WT; EMSA: 50 mM Tris-HCl pH 7.5 (25 C), 100 mM KCl (or LiCl), 2.5 mM MgCl2, 0.1 mM ZnCl2, 2 mM 2-mercaptoethanol, 0.05 mg/ml BSA, 0.05 mg/ml yeast tRNA, 5% glycerol, 30 C 30 min; conditions: protein: recombinant; copies: 1;1;1;1;1;1; label: 32P 5' (EMSA); no G4
[3] = molecular target: T1, six-subunit PRC2 …; assay: EMSA; 100 mM KCl; EMSA: 50 mM Tris-HCl pH 7.5 (25 C), 100 mM KCl (or LiCl), 2.5 mM MgCl2, 0.1 mM ZnCl2, 2 mM 2-mercaptoethanol, 0.05 mg/ml BSA, 0.05 mg/ml yeast tRNA, 5% glycerol, 30 C 30 min; conditions: protein: recombinant, tags: His (EZH2), Strep-GFP (AEBP2, JARID2), TEV treated, AEBP2 retains 7 extra N-terminal aa, copies: 1;1;1;1;1;1, label: 32P 5' (EMSA); remark: listed apart in the source
[4] = molecular target: T1, six-subunit PRC2 …; assay: UV crosslinking; very low crosslinking efficiency despite saturated binding; EMSA: 50 mM Tris-HCl pH 7.5 (25 C), 100 mM KCl (or LiCl), 2.5 mM MgCl2, 0.1 mM ZnCl2, 2 mM 2-mercaptoethanol, 0.05 mg/ml BSA, 0.05 mg/ml yeast tRNA, 5% glycerol, 30 C 30 min; conditions: protein: recombinant; tags: His (EZH2), Strep-GFP (AEBP2, JARID2); TEV treated; AEBP2 retains 7 extra N-terminal aa; copies: 1;1;1;1;1;1; label: 32P; G4

UUUUUUUUUUCUCUUUCUCUCCUUCUCUUCCUCUCUCUCCUCUUUCUCUC (ssRNA) [P10] was tested, and the binding signal ([1]; single strand) was ~4 fold weaker than TERRA/Poly(U)/Poly(C).

Binder AAAAAAAAAAGAGAGAGAUGAGUGUGAGUGUGAGUGUGAGUGAGAGAGAG (ssRNA) [TERRAmut] has a Kd [2] of 112 ± 24 nM and a Kd ([3]; no G4) of 66 ± 15 nM.

B1: 2G4 (structured_RNA)
RNA: AAAAAAAAAAGGGAAGGGAAGGGAAGGGAACAACAACAACAACAAGGGAAGGGAAGGGAAGGGAA
B1: binds [4].

AAAAAAAAAAGUGUGUGUGUGUGUGUGUGUGUGUGUGUGUGUGUGUGUGU (structured_RNA) [pUG-fold] was tested, and the binding signal ([1]; atypical G4 (pUG-fold: three G quartets and one U quartet)) was ~2 fold weaker than TERRA/Poly(U)/Poly(C).

For UUUUUUUUUUUUUUUUUUUUUUUUUUUUUUUUUUUUUUUUUUUUUUUUUU (ssRNA) [Poly(U)], the Kd ([3]; single strand) was 28 ± 4 nM.

AAAAAAAAAAGAGAGAGAUUAGGGUUAGGGUUAGGGUUAGGGAGAGAGAG (structured_RNA) [TERRA] was tested, and the Kd ([3]; single intramolecular G4 in K+) was 18 ± 9 nM.
